Source: the DeepSol protein solubility set

Test: soluble on expression in E. coli; label from the status in PepcDB or PDB records
In the case of “MAHHHHHHMHLDEEYGNRSSSVSCDSSDAASAHSSSSDSASSAGGRQQRQRGNGSGGTETASLLSLPTASHANHAGCSVCGSATSLASRVSLLSTLSQHSAASYLSFISVLRPSITAGSAAGGTGAGGSADGDGAAGAGQQMHESEDGNTNLPLILLEQLALGLHRFMEAYPAELLDRYGLRSVSWSSIARMFATVEKSLVNTTTTAGAAAGAAAAAAPRQANHFPNDQEPPQPLFNLAQDIRYNKGMGYECLGLLFAKVVAPLLDPASSRAIASTSWSPPQQHQLRRSTGEATGTEDDDGSGGGARSDGGGTQEEFFANAAAVAATVGRAVLTIDDDPATRASVEAALSRCLTAYETVAPQVVDMNLPTILRLAARTAATSAGSTTSLRASASPSSLSIVLVDFVRDITARLGRGNDLPHLVDALLQRGDFAANASATAAASAVVDGSGDKASTIRSLRAVFSLPPVRQAVMEAAGTSLDPESLLRRLSGVAAELEEDNKSSSSSSSAQDEKQVELSSTARSCRKHDDARVQRMLLALELMEALLAGVTPTCVSASAVLEHTTQLELLLSSSFMAAVEELKGVCGEALDDRRALMIQHMYTIRQCRAVTILCLQDLGTQQVHDYLRMLEDALWQLTSHVGNLVGSLTLAELQPLLRPHPARYGGSEVLAPSPSALEQLQVQLLPSSLILQRPVASARSDRRPGNSRRARRGAP”, the “soluble on expression in E. coli” value is reported as “not soluble”. With “ISDTLNIQRKKIILYAPTFRDYNMQSIQLPFTEEQLIHQLKEEYVLFVKLHPAIQNNIDIKYSSDYIKDVSNYALFDLLMAADILITDYSSVPFEFSILNKPILFYTYDLKLYQQKRGLVDNYLSIIPGRACYDSESLINEIQTPFNYSKIKVFSDRWNKYSDGNSSQNLLNFIEN” the “soluble on expression in E. coli” value was “not soluble”. With “MADRPIEIVDRQNVLTVHLPGTYTVMYDARYCYVSYIPVSETVAEFTLTGFKYPLTNCHISRGSTLCISNELIQSSGTFSFSEGILMMIRSSDSLEHHHHHH” the “soluble on expression in E. coli” value was “not soluble”. With “APTIPQGQGKVTFNNTVVDAPCSISQKSADQSIDFGQLSKSFLEAGGVSKPMDLDIELVNCDITAFKGGNGAKKGTVKLAFTGPIVNGHSDELDTNGGTGLAIVVQGAGKNVVFDGSEGDANTLKDGENVLHYTAVVKKSSAVGAAVTEGAFSAVANFNLTYQ” the “soluble on expression in E. coli” value was “soluble”. With “MSLNGPLKIGYYKIGAAYRDGKGYDVDMVRELARRLGCPIANETELPRLRALKMLETGQIDVSASTLATPDRLQYAWIYQYNHAKNMVLLNPAIQARTLATLLEDPALRWGAIRGYHHGPSQDKLLEELNARHKVVIANDEDDLYKMLGNGVVTAVFAQPFSYGRWLRELPNPNQIVVLDLYPETDMVASGLALSKARFSREAAEKWHQELLKMYQDGSLYDIMRRYLNESAARQMMQKPIEEGHHHHHH” the “soluble on expression in E. coli” value was “soluble”. With “MGSDKIHHHHHHMLELTPNLNMNSKKALYVQLYEYIKKEIKDGTIVPFTKLPAKRKLAIHLQVSKNTVEAAYEQLLAEGYIESISRKGYFVCKIEQMVHVEDSEERIEEVLFQEKSYKFDFTQTGIDTNAFPFNMYRKIVNEVWQPYNNELLFLGHPQGEASLREEITNYLYESRGVRCSASQIVLGAGTQILVKLLFQLLKGSNYAVENPGYHRKMVVFEQGEEKVQMLSLDRDGICMADLENSDANVVFVTPSHQFPYGMIMPITRRTQLLQWAKKAKDRYIIEDDYDSEFRYSGRPIPALQGLDTEGKVIYMGTLSKALLPSLRMSYIVLPKNLIIKYQKEYLFYTQSVSRMDQEVIRKFLNEGYWEKHIHKMRVVYRKKRDRLVFEIEKYFSNRVEVIGEDSGLHILLQVHNGMREEELIQEAAKYSIKVYPVSTYYKDGTAPENVVLLGFAILSEEEIAKAIQLLNTAWFRKKVKKHPHT” the “soluble on expression in E. coli” value was “not soluble”. For “GHHHHHHHHHHSSGHISGDAMEDKQERANYEKLQQKFQMLMSKHQAHVRPQFESLEKINKDIVGWIKLSGTSLNYPVLQGKTNHDYLNLDFEREHRRKGSIFMDFRNELKNLNHNTILYGHHVGDNTMFDVLEDYLKQSFYEKHKIIEFDNKYGKYQLQVFSAYKTTTKDNYIRTDFENDQDYQQFLDETKRKSVINSDVNVTVKDRIMTLSTCEDAYSETTKRIVVVAKIIKVS”, the “soluble on expression in E. coli” value was “soluble”. For “MAHHHHHHMIGGQHTKERLSERLQDCQNQPKNRGYLPGTKLLTGGYSTRTLQGNWAEERMDAGYYDGEAVFPTHLARAWTTDYRTMTSNVSGSLTRPVFDQATLMDIVDHKHRSYPAHQPYLDQQRDEVMQERFKTTTRTSYINPEERKREAQLHIPPVIGRTPTAQARAVILRIQRQLLLSRHGESAFPGNILRQIRLTLQRNDTAGEGMLTVEEAEKGFEEAFLVVSRPECVALVRAFDLKEDGTISIAKIMEELRGELRDRRYSLVEKVYEMLKGFSPDGIVRLQRLAELVDVDSMNAVMNGKVTSSLAHDAFVEQWDLPIDSYISFENFLLYFMDASFEIESDQEFEVFMRNVWHLSGGNGKSMNTSCRRVRVVHRNGRMSTQEVKNDLCIKDSDPNLQERIIANLASWGIKDVARVEMLPRNL”, the “soluble on expression in E. coli” value was “not soluble”. In the case of “MSQLINLPMDQILYLSTSDIKHHVHLQTIHTLMDIRANLADFKKIHKKLYPCHRSYIVNTDMIISVNKTNYEATLINGQVLPVSRMKIGKIAQIVEERGRLEHHHHHH”, the “soluble on expression in E. coli” value is reported as “not soluble”. With “AIAAMGRTTQFTLDEVAKHADKDSCWLVIDGKVYAVEKFLNEHPGGEDVLLETAGRDATREFEDVGHSKSAREQLKEFYIGDVREPTAEELAAKRAVQASAAAERRDGDGVRANGLGKERLFAGGAFGAEPLSGGSSTWTLLKRLFVPVCIAVLVYLVREYSKQVQTGG” the “soluble on expression in E. coli” value was “soluble”. In the case of “MGSDKIHHHHHHMRRFFKNNLRNLSQNGETNSVRRCFALADVTVVINGRTLTVPDNLTVIEACEKAGIEIPALCHHPRLGESIGACRVCVVEVEGARNLQPACVTKVRDGMVIKTSSDRVKTARKFNLALLLSEHPNDCMTCEANGRCEFQDLIYKYDVEPIFGYGTKEGLVDRSSPAIVRDLSKCIKCQRCVRACSELQGMHIYSMVERGHRTYPGTPFDMPVYETDCIGCGQCAAFCPTGAIVENSAVKVVLEELEKKEKILVVQTAPSVRVAIGEEFGYAPGTISTGQMVAALRRLGFDYVFDTNFGADLTIMEEGSEFLERLEKGDLEDLPMFTSCCPGWVNLVEKVYPELRTRLSSAKSPQGMLSAMVKTYFAEKLGVKPEDIFHVSIMPCTAKKDEALRKQLMVNGVPAVDVVLTTRELGKLIRMKKIPFANLPEEEYDAPLGISTGAAALFGVTGGVMEAALRTAYELKTGKALPKIVFEEVRGLKGVREAEIDLDGKKIRIAVVHGTANVRNLVEKILRREVKYHFVEVMACPGGCIGGGGQPYSRDPEILRKRAEAIYTIDERMTLRKSHENPAIKKLYEEYLEHPLSHKAHELLHTYYEDRSRKKRLAVK”, the “soluble on expression in E. coli” value is reported as “not soluble”. In the case of “MSLIRGVIGYTITPFTADGTLDLDALGTSIDSLIAGGVHAIAPLGSTGEGAYLSDSEWETVVRFSQARIAGRVPSVVSVSDLTTARTVQRARLAQACGATAVMVLPISYWKLTEAEVVAHYKAVGAAIDIPIMLYNNPGTSGTDLSVELILRILGEVPNVTMVKESTGDIQRMHRLFTATDGQVAFYNGCNPLTLEALVAGATGWCTAAPNLIPALNLALWDAVQQGDLAEARALFYRQYELLEYITRRGLPTTIKAGLKMLGQDVGAPRLPLQPLDAQGSNHLKSLLEGHHHHHH”, the “soluble on expression in E. coli” value is reported as “soluble”. In the case of “MPSVPRVDRLKPIYTAAKALNFGWRFSDFLKIPAYNGISRYTNQLHRITVRFCKQSESSVGVRNFIENQLVEIGRKNPSVVIYAQPVRNSNPSIRAEYGNGRTLQINAKNMTQDEVSKDVHLLFSRSGEPVVKLESRQSALVPSIQGQWTPITWLPTEMNTEQLPAKQFSKHKSTATSATEYILQNPPK”, the “soluble on expression in E. coli” value is reported as “not soluble”. For “MAYVPTLIANNVLNRAFAEKYRISPMKLQKILYFAAAEYQKNTGKSLFSERFETWQYGPVLRSVYSEFRPFSRDFITRFAKDAENQSHMINESADPALQRVLDTVWSATKGHSAVDLSRITHMENSAWDKSFQNEQPFLSSDHIAADDTYRRELGLTTA”, the “soluble on expression in E. coli” value was “not soluble”. In the case of “MGSDKIHHHHHHMLGTLKKMRVQLDDAQQVQYQLVVGDELLTLNPLIGKQLTLTHTGNIFCCNCGKKSKKSYSQGHCFVCMQKLASCDMCIMKPETCHYDQGTCREPEWAQSHCFVPHYVYLANTSGVKVGITRHTQLPTRWIDQGATQGLPIFKVSTRQLSGLVEVELAKLVNDKTHWQAMLKGHADDIDLNVKAAELIPQIEAKLHEIGMQKGDYSIERLDETIQPIHYPIDTFPKKITSHNFDKNGVVSGILQGIKGQYLMFDTGVINIRKFSSYEISVEHD”, the “soluble on expression in E. coli” value is reported as “not soluble”. For “MRGSHHHHHHGSAELHLESRGGSGTQLRDGAKVATGRIICREAHTGFHVWMNERQVDGRAERYVVQSKDGRHELRVRTGGDGWSPVKGEGGKGVSRPGQEEQVFFDVMADGNQDIAPGEYRFSVGGACVVPQEDNKQGFTPSGTTGTTKLTVT”, the “soluble on expression in E. coli” value was “soluble”. With “SNAMKIAVINGGTRSGGNTDVLAEKAVQGFDAEHIYLQKYPIQPIEDLRHAQGGFRPVQDDYDSIIERILQCHILIFATPIYWFGMSGTLKLFIDRWSQTLRDPRFPDFKQQMSVKQAYVIAVGGDNPKIKGLPLIQQFEHIFHFMGMSFKGYVLGEGNRPGDILRDHQALSAASRLLKRSDAI” the “soluble on expression in E. coli” value was “soluble”. For “MSLSNLPADSFRVGVSEDRNRRCRRTMEDAHSFVYDFAGVKGQGYFAVFDGHAGKHAAEWCGQNFHEYLLDGLLIEPDTPVPDLMNKTFHLVDKRLSHLAHAAGTSSGCTAVTAFLRVEEMDDNDSFRKGFTNPGLQPRGLWEGKGEDELESQTSLQPSSRRSSMGGGTGGQMGGASAPGVNGRTGSLARRLSSKKIRDFVKGLTGGMEKNFDEAITEDEGVISAADGTRVEAIEPKSEKGVRRVLYTANVGDARAVLCRGGKAVRLTYDHKGSDAQEAKRITDAGGFVMNNRVNGVLAVTRSLGDASMKEFVVGAPYTTETTLDEQDEFLIVACDGLWDVCSDQEAVEIVHLVTDPQEASKRLLDHAMSNFSTDNLSVMVVRFNHEGHHHHHH”, the “soluble on expression in E. coli” value was “soluble”. With “MAHHHHHHMSGSVNRSNSFQKADSMDAKETSTVDRKWVALTAYQPVDVVTKTVEVPVIKTVEKFVPKTIIQEKIIHVPKNVTHIVEKIVEVPEVKYIEKIVEVPHIHYKNKYVPKIEVVEKVVERQKIIEKWHDKIVEVPQIKEVVRFKEIEDAEEVIKYIPRNSKNINWEEEYQKYTQRKGQERYSLDNNAYQQKMSSYNDYNEKAYSQNAYSRSLDFMNKQSSSLNNQSNIRSEDFSQINFFNQYIGSAGASYDKQRNSVPTSSFDARGSLQLKRMPSEEAKPVGCCTSACT” the “soluble on expression in E. coli” value was “not soluble”. For “MGSDKIHHHHHHMKTKLILVGGFLGVGKTTLLGEAARRLSQTGRKVGLITNDQASELVDTVYLEQTGTEVSEVSGSCFCCNFPGFMEAIDHVNAHKPADIIIAEPVGSCTDLSATILQPLKEKFADKLSVAPLSVLVDPRQLTDILDGRTAGLHPSAAYILRKQLEEADLIVINKTDLLTPLAVEILKKRTAEEWPLASVYAISAKTGEGLAAWLHEAQQRSGAGTHLAEVDYDTYAEGEAVLGWLNATIELQSQGADWDTLGRNLLNSLRSRFGSLNAAIGHVKLLIATDQGYVIGNITGAKDSLDIRESAGTGRKAQLTLNARVQMEPDLLEEIVKEEIAKVQADKITATIAVLKCLKPGRPNPTYRYGTIVG”, the “soluble on expression in E. coli” value was “not soluble”. For “AQSVPPGDINTQPSQKIVFNAPYDDKHTYHIKITNAGGRRIGWAIKTTNMRRLSVDPPCGVLDPKEKVLMAVSCDTFNAATERLNNDRITIEWTNTPDGAAKQFRREWFQGDGMVRRKNLPIEYNL”, the “soluble on expression in E. coli” value was “soluble”.
